# Patent US20180346588A1 (MOGAM INSTITUTE FOR BIOMEDICAL RESEARCH, published 2018)
# Numbering of substitutions follows the chain as printed.
# B1: clone MI407 anti-MSLN antibody (antibody, V domains shown)
# VH: EVKLVESGGGLVKPGGSLKLSCAASGFPFSNYDMSWVRQTPEKRLEWVAYISSGGGNTYYPDTVKGRFTISRDNAKNTLYLQMSSLKSEDTALYFCVRQGTSVESYWYFDVWGAGTTVTVSS
# VL: DIVLTQSPASLAVSLGQRATISCRASQSVSTSSSSYIHWYQQKPGQPPKLLIKYASNLESGVPARFSGSGSGTDFTLNIHPVEEDDTATYYCQHSWEIPFTFGSGTELEIKR
# notes: also called M1407
# B2: clone 2-30 (MS502 heavy chain variable region mutation antibody) (antibody, V domains shown)
# VH: EVQLLESGGGLVQPGGSLRLSCAASGFTFSNYAMSWVRQAPGKGLEWVSGIPPDSNSKYYADSVRGRFTVSRDNSKNTLYLQMNSLRAEDTAVYYCAKNMRTFDYWGQGTLVTVSS
# VL: QSVLTQPPSASGTPGQRVTISCTGSSSNIGSNAVSWYQQLPGTAPKLLIYYNSKRPSGVPDRFSGSKSGTSASLAISGLRSEDEADYYCGSWDSSLNGYVFGGGTKVTVLG
# notes: SPR done with IgG (human heavy chain constant region vector, MS502 light chain)
# B3: clone MS504 anti-MSLN antibody (antibody, IgG1, V domains shown)
# VH: B2 VH with G50S, P52Y, D54N, S55G, N56S, R65K, V70I, T91M, M100L, R101L
# VL: B2 VL with T13P, S31N, A33S, N52D, K54H, S77G, S91A, S94D, G98A, V107L
# notes: From a phage display synthetic scFv library
# B4: clone MS501 anti-MSLN antibody (antibody, V domains shown)
# VH: B2 VH with P52Y, N56G, K58T, R65K, V70I, K98R, M100I, R101Y
# VL: B2 VL with T23S, S53N, K54Q, N97S, V107L
# notes: as for B3
# B5: clone 2-73-C2G4 antibody (antibody, V domains shown)
# VH: B2 VH with D54N, N56D, R101L, T102S
# VL: B2 VL with S94P
# notes: IgG (human IgG1 heavy chain constant region; light chain constant region said to be human kappa)
# B6: clone 56-C2G4 antibody (antibody, V domains shown)
# VH: B2 VH with N56A, R101L, T102S
# VL: B2 VL with S94P
# notes: as for B5
# B7: clone 2-78 (MS502 heavy chain variable region mutation antibody) (antibody, V domains shown)
# VH: B2 VH with N56G, R101F, T102S
# VL: B2 VL
# notes: as for B2
# B8: clone MS506 anti-MSLN antibody (antibody, IgG1, V domains shown)
# VH: B2 VH with G50S, P52Y, D54G, N56G, K58T, R65K, V70I, K98R, M100L, R101Y
# VL: B2 VL with S35T, N52D, K54H, L79P, S91A, N97S, G98A, V107L
# notes: as for B3
# B9: clone MS502-1 anti-MSLN antibody (antibody, V domains shown)
# VH: B2 VH with N56G, R101L, T102S
# VL: B2 VL with T23I, G24C, V107L
# B10: clone 2-30-C2G4 antibody (antibody, V domains shown)
# VH: B2 VH
# VL: B2 VL with S94P
# notes: as for B5
# B11: clone MS505 anti-MSLN antibody (antibody, IgG1, V domains shown)
# VH: B2 VH with G50A, P52Y, S55G, N56S, S57N, R65K, K98R, M100A, R101Y
# VL: B2 VL with Q16R, T23S, K54Q, V107L
# notes: as for B3
# B12: clone MS503 anti-MSLN antibody (antibody, IgG1, V domains shown)
# VH: B2 VH with G50S, P52Y, D54G, S55D, N56G, K58T, R65K, V70I, M100A, R101F
# VL: B2 VL with T23S, K54H, S91T, N97S, V107L
# notes: as for B3
# B13: clone 56 (MS502 heavy chain variable region mutation antibody) (antibody, V domains shown)
# VH: B2 VH with N56A, R101L, T102S
# VL: B2 VL
# notes: as for B2
# Columns and labels:
# [1] = biological target: T1, human mesothelin (MSLN) on the cell surface (human, UniProt Q13421 296-598); experiment: FACS on MSLN stable cell line (#2), left panels; sheet note: 1st Ab 1 µg (1st assay), 2nd Ab anti-human Fc antibody FITC
# T1 construct: also called MSLN of mesothelioma (H226, H2052) and pancreatic cancer (AsPC-1) cell lines; MSLN on MiaPaCa-MSLN #2 cells
# Experimental: FACS test was performed on the MSLN present in the cell surface with regard to MiaPaCa-MSLN which is a cell line in which the MSLN was artificially expressed. Cells to be analyzed that were grown in a culture dish were separated by adding a Tryple Express solution and stored in a 50 mL tube, followed by centrifugation at 2000 rpm at room temperature for 3 minutes to decant the culture fluid, and the obtained product was washed once with PBS. The cells were suspended with FACS buffer, and transferred to a round bottom tube and centrifuged at 2000 rpm at room temperature for 3 minutes. The supernatant was discarded and the cells were well-loosened with the FACS buffer so as to have a cell density of 4×10⁵/mL. Then, 1 μg of candidate antibody was added thereto at 4° C. After 1 hour, the resultant material was washed with the FACS buffer twice, and goat-derived anti-human IgG antibody (FITC junction) was added in an amount of 1 μL for each sample to be combined at 4° C. for 30 minutes. The cells were collected by centrifugation at 2000 rpm for 3 minutes, and 500 μL of fixation buffer was added to resuspend the cells, and the cells were measured by FACS calibur (FIG. 6).
# The FACS test was performed to evaluate whether the anti-MSLN antibody was selectively bound to the MSLN-overexpressing cell line (MiaPaCa-MSLN #2). The anti-MSLN candidate antibody was labeled by the method described in Example 4-2 above, and the cells were measured by FACS calibur (FIG. 7).
# [2] = biological target: T2, recombinant human mesothelin (MSLN) (human, UniProt Q13421 296-580, limits assumed); experiment: SPR, Biacore T-200; MSLN amine-coupled to CM5 chip, IgG in flow
# T2 construct: also called human MSLN; recombinant human MSLN
# Experimental: The quantitative binding force (affinity) of each of the purified anti-MSLN antibodies, i.e., MS502 clone heavy chain variable region mutation antibodies 56, 2-30, 2-73, 2-78, and the combination antibodies of the C2G4 light chain variable region and the heavy chain variable region mutation antibodies including 56-C2G4, 2-30-C2G4, 2-73-C2G4, 2-78-C2G4 with regard to recombinant human mesothelin (MSLN) was measured by using a Biacore T-200 (GE Healthcare, U.S.A.) biosensor. […] Then, the clone 56 antibody, the clone 2-30 antibody, the clone 2-73 antibody, the clone 2-78 antibody, the clone 56-C2G4 antibody, the clone 2-30-C2G4 antibody, the clone 2-73-C2G4 antibody, and the clone 2-78-C2G4 antibody serially diluted with HBS-EP buffer (10 mM HEPES, pH7.4, 150 mM NaCl, 3 mM EDTA, 0.005% surfactant P20) were allowed to flow at a concentration range of 0.078 nM to 5 nM and at a flow rate of 30 μL/min for association of 120 seconds and dissociation of 1800 seconds. The dissociation of the antibody bound to the MSLN was induced by flowing 10 mM Glycine-HCl pH 1.5 at a flow rate of 30 μL/min for 30 seconds (Table 17). The affinity was obtained as movement speed constants (Kₒₙ and Koff) and an equilibrium dissociation constant (KD) by using a Biacore T-200 evaluation software (Table 18).
# [3] = biological target: T2, recombinant human mesothelin (MSLN); experiment: ELISA, clone supernatant on MSLN-coated plate
# Experimental: Single colonies of a phage display synthetic scFv library final amplified population were collected, and cultured with 1.5 mL of SB/carbenicillin to an OD₆₀₀ of 0.8 to 1.0 at 37° C. and at 220 rpm, and then cultured with 1 mM IPTG at 30° C. and at 200 rpm for 12 hours or more. The reaction materials were centrifuged at 5500 rpm for 5 minutes, and only each supernatant was added to ELISA plates containing underlying MSLN antigen, and reacted at room temperature for 2 hours. Then, the resultant materials were washed with PBST (1×PBS, 0.05% tween 20) four times, and HRP/Anti-hFab-HRP conjugate diluted by 1/5000 with 1% BSA/1×PBS was added thereto, and reacted at room temperature for 1 hour, and washed with PBST (1×PBS, 0.05% tween 20) 4 times. Then, a TMB solution was added thereto and reacted for 5 to 10 minutes, and a TMB stop solution was added thereto. Next, O.D values were measured at a measurement wavelength of 450 nm using a TECAN sunrise, and clones having high O.D. value were secured as individual clones.
# T2 sequence (Q13421 other isoform, or with tags, fused parts or gaps limits assumed): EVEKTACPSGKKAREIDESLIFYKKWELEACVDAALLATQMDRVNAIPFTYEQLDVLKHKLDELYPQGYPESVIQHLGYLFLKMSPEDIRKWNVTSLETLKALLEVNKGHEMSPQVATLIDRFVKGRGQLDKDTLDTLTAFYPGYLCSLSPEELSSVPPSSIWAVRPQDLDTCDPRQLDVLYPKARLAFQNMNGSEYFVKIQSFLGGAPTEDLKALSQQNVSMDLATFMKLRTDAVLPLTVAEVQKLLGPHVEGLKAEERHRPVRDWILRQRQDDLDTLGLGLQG
# T1 sequence (Q13421 other isoform, or with tags, fused parts or gaps limits assumed): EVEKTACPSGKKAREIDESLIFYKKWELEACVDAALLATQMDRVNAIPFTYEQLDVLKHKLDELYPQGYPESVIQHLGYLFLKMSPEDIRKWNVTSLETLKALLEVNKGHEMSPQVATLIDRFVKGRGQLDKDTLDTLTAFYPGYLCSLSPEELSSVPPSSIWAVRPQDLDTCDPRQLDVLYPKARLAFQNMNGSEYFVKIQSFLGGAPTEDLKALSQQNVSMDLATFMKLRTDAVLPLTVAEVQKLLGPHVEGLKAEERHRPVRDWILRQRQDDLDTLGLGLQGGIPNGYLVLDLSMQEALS
Binder,Kd [2],binding result [3],other results
B1,–,–,"Mean, FL1-H [1]: 225"
B2,0.166 nM,–,–
B3,–,binds,–
B4,–,binds,–
B5,0.165 nM,–,–
B6,0.163 nM,–,–
B7,0.0163 nM,–,–
B8,–,binds,–
B9,–,binds,–
B10,0.234 nM,–,–
B11,–,–,"Mean, FL1-H [1]: 181"
B12,–,binds,–
B13,0.125 nM,–,–
